{
  "source": "the supplement of paper PMC10567573",
  "parents": {"B1": {"name": "GAGE1 (parent)", "chain": "RPRRYVQPPEMIGPMRPEQFSDEV"}},
  "data": [
    {"variants_of": "B1", "experiment": "protein stability index of a GFP-peptide fusion (GPS, HEK-293T) (PSI 1-6); higher = more stable", "details": "c terminus: a fixed tail appended", "values": [
      {"variant": "RPRRYVQPPEMIGPMRPEYFSDEV", "note": "[Q19Y]", "protein stability index": 3.92},
      {"variant": "RPRRYVQPPEMIGPMRPECFSDEV", "note": "[Q19C]", "protein stability index": 4.16},
      {"variant": "RPRRYVQPPEMIGPMRPESFSDEV", "note": "[Q19S]", "protein stability index": 3.82},
      {"variant": "RPRRYVQPPEMIGPMRPEPFSDEV", "note": "[Q19P]", "protein stability index": 4.11},
      {"variant": "RPRRYVQPPEMIGPMRPEMFSDEV", "note": "[Q19M]", "protein stability index": 3.58},
      {"variant": "RPRRYVQPPEMIGPMRPEGFSDEV", "note": "[Q19G]", "protein stability index": 4.28},
      {"variant": "RPRRYVQPPEMIGPMRPETFSDEV", "note": "[Q19T]", "protein stability index": 4.09},
      {"variant": "RPRRYVQPPEMIGPMRPEKFSDEV", "note": "[Q19K]", "protein stability index": 3.98},
      {"variant": "RPRRYVQPPEMIGPMRPELFSDEV", "note": "[Q19L]", "protein stability index": 3.63},
      {"variant": "RPRRYVQPPEMIGPMRPEHFSDEV", "note": "[Q19H]", "protein stability index": 3.62},
      {"variant": "RPRRYVQPPEMIGPMRPEAFSDEV", "note": "[Q19A]", "protein stability index": 3.71},
      {"variant": "RPRRYVQPPEMIGPMRPEFFSDEV", "note": "[Q19F]", "protein stability index": 3.62},
      {"variant": "RPRRYVQPPEMIGPMRPEEFSDEV", "note": "[Q19E]", "protein stability index": 3.51},
      {"variant": "RPRRYVQPPEMIGPMRPEWFSDEV", "note": "[Q19W]", "protein stability index": 3.12},
      {"variant": "RPRRYVQPPEMIGPMRPEDFSDEV", "note": "[Q19D]", "protein stability index": 3.69},
      {"variant": "RPRRYVQPPEMIGPMRPENFSDEV", "note": "[Q19N]", "protein stability index": 3.79},
      {"variant": "RPRRYVQPPEMIGPMRPEVFSDEV", "note": "[Q19V]", "protein stability index": 3.78},
      {"variant": "RPRRYVQPPEMIGPMRPEIFSDEV", "note": "[Q19I]", "protein stability index": 3.78},
      {"variant": "RPRRYVQPPEMIGPMRPERFSDEV", "note": "[Q19R]", "protein stability index": 3.71},
      {"variant": "RPRRYVQPPEMIGPMRPYQFSDEV", "note": "[E18Y]", "protein stability index": 3.51},
      {"variant": "RPRRYVQPPEMIGPMRPKQFSDEV", "note": "[E18K]", "protein stability index": 3.43},
      {"variant": "RPRRYVQPPEMIGPMRPVQFSDEV", "note": "[E18V]", "protein stability index": 3.32},
      {"variant": "RPRRYVQPPEMIGPMRPSQFSDEV", "note": "[E18S]", "protein stability index": 3.33},
      {"variant": "RPRRYVQPPEMIGPMRPDQFSDEV", "note": "[E18D]", "protein stability index": 3.48},
      {"variant": "RPRRYVQPPEMIGPMRPCQFSDEV", "note": "[E18C]", "protein stability index": 3.21},
      {"variant": "RPRRYVQPPEMIGPMRPQQFSDEV", "note": "[E18Q]", "protein stability index": 3.56},
      {"variant": "RPRRYVQPPEMIGPMRPFQFSDEV", "note": "[E18F]", "protein stability index": 3.34},
      {"variant": "RPRRYVQPPEMIGPMRPTQFSDEV", "note": "[E18T]", "protein stability index": 3.84},
      {"variant": "RPRRYVQPPEMIGPMRPAQFSDEV", "note": "[E18A]", "protein stability index": 3.81},
      {"variant": "RPRRYVQPPEMIGPMRPMQFSDEV", "note": "[E18M]", "protein stability index": 3.45},
      {"variant": "RPRRYVQPPEMIGPMRPNQFSDEV", "note": "[E18N]", "protein stability index": 3.66},
      {"variant": "RPRRYVQPPEMIGPMRPHQFSDEV", "note": "[E18H]", "protein stability index": 3.46},
      {"variant": "RPRRYVQPPEMIGPMRPRQFSDEV", "note": "[E18R]", "protein stability index": 3.57},
      {"variant": "RPRRYVQPPEMIGPMRPLQFSDEV", "note": "[E18L]", "protein stability index": 3.52},
      {"variant": "RPRRYVQPPEMIGPMRPPQFSDEV", "note": "[E18P]", "protein stability index": 3.6},
      {"variant": "RPRRYVQPPEMIGPMRPIQFSDEV", "note": "[E18I]", "protein stability index": 3.13},
      {"variant": "RPRRYVQPPEMIGPMRPGQFSDEV", "note": "[E18G]", "protein stability index": 3.86},
      {"variant": "RPRRYVQPPEMIGPMRPWQFSDEV", "note": "[E18W]", "protein stability index": 3.16},
      {"variant": "RPRRYVQPPEMIGPMRDEQFSDEV", "note": "[P17D]", "protein stability index": 4.43},
      {"variant": "RPRRYVQPPEMIGPMRLEQFSDEV", "note": "[P17L]", "protein stability index": 3.97},
      {"variant": "RPRRYVQPPEMIGPMRNEQFSDEV", "note": "[P17N]", "protein stability index": 4.09},
      {"variant": "RPRRYVQPPEMIGPMRIEQFSDEV", "note": "[P17I]", "protein stability index": 3.72},
      {"variant": "RPRRYVQPPEMIGPMRCEQFSDEV", "note": "[P17C]", "protein stability index": 3.79},
      {"variant": "RPRRYVQPPEMIGPMRTEQFSDEV", "note": "[P17T]", "protein stability index": 3.85},
      {"variant": "RPRRYVQPPEMIGPMRQEQFSDEV", "note": "[P17Q]", "protein stability index": 4.15},
      {"variant": "RPRRYVQPPEMIGPMRREQFSDEV", "note": "[P17R]", "protein stability index": 3.96},
      {"variant": "RPRRYVQPPEMIGPMRMEQFSDEV", "note": "[P17M]", "protein stability index": 3.88},
      {"variant": "RPRRYVQPPEMIGPMRWEQFSDEV", "note": "[P17W]", "protein stability index": 3.66},
      {"variant": "RPRRYVQPPEMIGPMRHEQFSDEV", "note": "[P17H]", "protein stability index": 3.92},
      {"variant": "RPRRYVQPPEMIGPMRAEQFSDEV", "note": "[P17A]", "protein stability index": 3.8},
      {"variant": "RPRRYVQPPEMIGPMRVEQFSDEV", "note": "[P17V]", "protein stability index": 4.43},
      {"variant": "RPRRYVQPPEMIGPMRKEQFSDEV", "note": "[P17K]", "protein stability index": 4.14},
      {"variant": "RPRRYVQPPEMIGPMRFEQFSDEV", "note": "[P17F]", "protein stability index": 3.58},
      {"variant": "RPRRYVQPPEMIGPMRSEQFSDEV", "note": "[P17S]", "protein stability index": 4.39},
      {"variant": "RPRRYVQPPEMIGPMRYEQFSDEV", "note": "[P17Y]", "protein stability index": 3.36},
      {"variant": "RPRRYVQPPEMIGPMRGEQFSDEV", "note": "[P17G]", "protein stability index": 4.55},
      {"variant": "RPRRYVQPPEMIGPMREEQFSDEV", "note": "[P17E]", "protein stability index": 4.33},
      {"variant": "RPRRYVQPPEMIGPMRPEQFSDEY", "note": "[V24Y]", "protein stability index": 3.94},
      {"variant": "RPRRYVQPPEMIGPMRPEQFSDER", "note": "[V24R]", "protein stability index": 4.47},
      {"variant": "RPRRYVQPPEMIGPMRPEQFSDED", "note": "[V24D]", "protein stability index": 4.09},
      {"variant": "RPRRYVQPPEMIGPMRPEQFSDEM", "note": "[V24M]", "protein stability index": 3.74},
      {"variant": "RPRRYVQPPEMIGPMRPEQFSDEN", "note": "[V24N]", "protein stability index": 4.2},
      {"variant": "RPRRYVQPPEMIGPMRPEQFSDEH", "note": "[V24H]", "protein stability index": 4.46},
      {"variant": "RPRRYVQPPEMIGPMRPEQFSDET", "note": "[V24T]", "protein stability index": 4.17},
      {"variant": "RPRRYVQPPEMIGPMRPEQFSDEQ", "note": "[V24Q]", "protein stability index": 4.18},
      {"variant": "RPRRYVQPPEMIGPMRPEQFSDEI", "note": "[V24I]", "protein stability index": 3.51},
      {"variant": "RPRRYVQPPEMIGPMRPEQFSDEE", "note": "[V24E]", "protein stability index": 4.17},
      {"variant": "RPRRYVQPPEMIGPMRPEQFSDEF", "note": "[V24F]", "protein stability index": 2.74},
      {"variant": "RPRRYVQPPEMIGPMRPEQFSDEG", "note": "[V24G]", "protein stability index": 3.58},
      {"variant": "RPRRYVQPPEMIGPMRPEQFSDEL", "note": "[V24L]", "protein stability index": 3.74},
      {"variant": "RPRRYVQPPEMIGPMRPEQFSDEK", "note": "[V24K]", "protein stability index": 4.5},
      {"variant": "RPRRYVQPPEMIGPMRPEQFSDEC", "note": "[V24C]", "protein stability index": 3.35},
      {"variant": "RPRRYVQPPEMIGPMRPEQFSDEA", "note": "[V24A]", "protein stability index": 4.52},
      {"variant": "RPRRYVQPPEMIGPMRPEQFSDES", "note": "[V24S]", "protein stability index": 4.21},
      {"variant": "RPRRYVQPPEMIGPMRPEQFSDEW", "note": "[V24W]", "protein stability index": 4.01},
      {"variant": "RPRRYVQPPEMIGPMRPEQFSDEP", "note": "[V24P]", "protein stability index": 4.06},
      {"variant": "RPRRYVQPPEMIGPMRPEQLSDEV", "note": "[F20L]", "protein stability index": 4.5},
      {"variant": "RPRRYVQPPEMIGPMRPEQVSDEV", "note": "[F20V]", "protein stability index": 4.71},
      {"variant": "RPRRYVQPPEMIGPMRPEQTSDEV", "note": "[F20T]", "protein stability index": 4.62},
      {"variant": "RPRRYVQPPEMIGPMRPEQISDEV", "note": "[F20I]", "protein stability index": 4.31},
      {"variant": "RPRRYVQPPEMIGPMRPEQESDEV", "note": "[F20E]", "protein stability index": 4.97},
      {"variant": "RPRRYVQPPEMIGPMRPEQGSDEV", "note": "[F20G]", "protein stability index": 4.85},
      {"variant": "RPRRYVQPPEMIGPMRPEQYSDEV", "note": "[F20Y]", "protein stability index": 3.82},
      {"variant": "RPRRYVQPPEMIGPMRPEQDSDEV", "note": "[F20D]", "protein stability index": 4.91},
      {"variant": "RPRRYVQPPEMIGPMRPEQSSDEV", "note": "[F20S]", "protein stability index": 4.42},
      {"variant": "RPRRYVQPPEMIGPMRPEQWSDEV", "note": "[F20W]", "protein stability index": 3.94},
      {"variant": "RPRRYVQPPEMIGPMRPEQPSDEV", "note": "[F20P]", "protein stability index": 4.72},
      {"variant": "RPRRYVQPPEMIGPMRPEQHSDEV", "note": "[F20H]", "protein stability index": 4.04},
      {"variant": "RPRRYVQPPEMIGPMRPEQCSDEV", "note": "[F20C]", "protein stability index": 4.64},
      {"variant": "RPRRYVQPPEMIGPMRPEQMSDEV", "note": "[F20M]", "protein stability index": 4.08},
      {"variant": "RPRRYVQPPEMIGPMRPEQRSDEV", "note": "[F20R]", "protein stability index": 4.64},
      {"variant": "RPRRYVQPPEMIGPMRPEQNSDEV", "note": "[F20N]", "protein stability index": 4.8},
      {"variant": "RPRRYVQPPEMIGPMRPEQQSDEV", "note": "[F20Q]", "protein stability index": 4.84},
      {"variant": "RPRRYVQPPEMIGPMRPEQASDEV", "note": "[F20A]", "protein stability index": 4.98}
    ]}
  ]
}
